{"source": "patent US20070015695A1", "about": "(NATIONAL JEWISH HEALTH, published 2007)", "binders": {"B1": {"name": "extracellular domain of BCMA (residues 1 to 51 of SEQ ID NO:6), soluble monomer, cleaved from GST-BCMA (receptor)", "chain": "MLQMAGQCSQNEYFDSLLHACIPCQLRCSSNTPPLTCQRYCNASVTNSVKG", "notes": "Expressed as a GST fusion in pGEX4T-2 and cleaved from GST with thrombin; also called monomeric BCMA; monomeric BMCA"}, "B2": {"name": "BCMA, entire, overexpressed on transfected 293 cells (receptor)", "chain": "MLQMAGQCSQNEYFDSLLHACIPCQLRCSSNTPPLTCQRYCNASVTNSVKGTNAILWTCLGLSLIISLAVFVLMFLLRKISSEPLKDEFKNTGSGLLGMANIDLEKSRTGDEIILPRGLEYTVEECTCEDCIKSKPKVDSDHCFPLPAMEEGATILVTTKTNDYCKSLPAALSATEIEKSISAR", "notes": "also called BCMA-transfected 293 cells; cells that overexpressed entire BCMA"}}, "key": {"[1]": {"molecular_target": "T1, soluble TALL-1 (sTALL-1), amino acids 134-285 of human TALL-1, His6-tagged, wild type (human, UniProt Q9Y275 134-285)", "T1 construct": "Expressed in E. coli; Monomers form trimers, and at pH 7.4 and above a virus-like cluster of 60 monomers (20 trimers); Immobilised as 'wild type multimeric sTALL-1' in the BIAcore assay; also called wild type sTALL-1; native sTALL-1; not shown: N-terminal His6 tag from vector pET14b", "experiment": "co-expression, gel filtration at 100 mM to 1 M NaCl and SDS gel analysis, ratio 1:1", "method": "However, four lines of evidence support the present inventors' belief that the crystal structure described herein reflects the actual interactions of the complexes in solution and in vivo. First, co-expression of sTALL-1 with eBCMA or eBAFF-R generates the virus-like cluster in solution as judged by gel-filtration column and […] analysis at a ratio of 1:1 (sTALL-1: eBCMA or eBAFF-R). Different salt concentrations (from 100 mM to 1 M NaCl) produce the same elution profile, in which complexes of sTALL-1 with eBCMA or eBAFF-R elute at a void volume on superdex-200. Thus, binding between ligand and receptors is stable and insensitive to salt concentrations. Purified samples of the preformed complexes were subjected to crystallization trials. Crystals of both complexes have been obtained, however neither of them diffracted. The results further confirmed that the “flap” region of TALL-1 which is involved in clustering, is not part of the receptor binding site. […] Second, in the receptor soaked sTALL-1 crystals, all seven fully occupied receptors and one partial receptor have equivalent binding sites on sTALL-1 in the asymmetry unit, so the binding is highly specific. Third, eBCMA and eBAFF-R have a similar binding mode and occupy the same site on sTALL-1. […]"}, "[2]": {"molecular_target": "T1, soluble TALL-1 (sTALL-1), amino acids …", "experiment": "BIAcore SPR, sTALL-1 immobilised on CM-5 chip, monomeric BCMA (10-1000 nM) injected, Scatchard analysis of equilibrium binding", "method": "(§1) The binding affinity of BCMA for the wild type versus mutant sTALL-1 was further determined using BIACore surface plasmon resonance. To obtain the true affinity of the receptor without the confounding effect of multivalent binding, the polyvalent TALL-1 proteins were immobilized in the instrument flow cells and the soluble monomeric BCMA was injected in the mobile phase. The KD of the interaction was calculated by Scatchard analysis of the equilibrium data (data not shown). Briefly, wild type multimeric sTALL-1 and mutant trimeric sTALL-1 were immobilized (11,000 and 3000 RU, respectively) in separate flow cells of a CM-5 BIAcore Biosenser chip using standard amine coupling reagents. Various concentrations (10-1000 nM) of monomeric BMCA were injected for one min at a flow rate of 20 μl/min in a buffer of 100 mMNaCl, 20 mM Tris-HCI pH8.0 and 0.005% P20 detergent and the binding kinetics recording. For base line calculations the same BMCA samples were injected in a control flow cell with no protein immobilized. Receptor binding kinetics were too rapid for accurate measurements of on rates and off rates, but equilibrium binding values (Rmax) were used to calculate the overall affinity of receptor binding by Scatchard analysis."}, "[3]": {"molecular_target": "B1", "experiment": "BIAcore SPR, mutant trimeric sTALL-1 immobilised on CM-5 chip, monomeric BCMA (10-1000 nM) injected, Scatchard analysis of equilibrium binding; mutant trimeric sTALL-1 (flap removed) immobilised, monomeric BCMA injected", "method": "as §1"}, "[4]": {"molecular_target": "B2", "experiment": "flow cytometry on BCMA-transfected 293 cells, anti-His6 mAb detection", "method": "(§2) First, BCMA-transfected 293 cells were incubated with control medium, wild type sTALL-1 in the control medium, and mutant sTALL-1 in the control medium. Cell staining was performed by sequential incubation (each 40 min) with anti-His₆ mAb and RPE-conjugated goat […] IgG in staining buffer. The fluorescence was measured by using a Becton Dickinson FACScan flow cytometer (Shu et al., 2000, supra) (data not shown)."}, "[5]": {"molecular_target": "T1, soluble TALL-1 (sTALL-1), amino acids …", "experiment": "flow cytometry on BCMA-transfected 293 cells, anti-His6 mAb detection", "method": "as §2"}}, "data": [{"binder": "eBCMA, extracellular domain of BCMA (residues 1-52 of SEQ ID NO:6) (receptor, Residues 5-43 are ordered in the model; Made as a GST fusion and cleaved with thrombin) MLQMAGQCSQNEYFDSLLHACIPCQLRCSSNTPPLTCQRYCNASVTNSVKGT", "values": [{"measurement": "binding result", "setting": "[1]", "value": "binds"}]}, {"binder": "B1", "values": [{"measurement": "Kd", "setting": "[2]", "value": "~100", "unit": "nM"}]}, {"binder": "mutant sTALL-1 with residues 217-224 of SEQ ID NO:2 (flap region) replaced by two glycines (ligand, Gel filtration gave trimer and monomer peaks and no cluster; Immobilised as 'mutant trimeric sTALL-1' in the BIAcore assay; also called truncated sTALL-1; sTALL-1 217-224; not shown: N-terminal His6 tag; the mutant was overexpressed and purified as the native sTALL-1 and detected with anti-His6 mAb; le) AVQGPEETVTQDCLQLIADSETPTIQKGSYTFVPWLLSFKRGSALEEKENKILVKETGYFFIYGQVLYTDKTYAMGHLIQRKKGGSLVTLFRCIQNMPETLPNNSCYSAGIAKLEEGDELQLAIPRENAQISLDGDVTFFGALKLL", "values": [{"measurement": "Kd", "setting": "[3]", "value": "~100", "unit": "nM"}, {"measurement": "binding result", "setting": "[4]", "value": "binds"}]}, {"binder": "B2", "values": [{"measurement": "binding result", "setting": "[5]", "value": "binds"}]}]}
